The source of these data is the supplement of paper PMC10567573.

First the molecules themselves.
B1: TMEM106C (parent)
chain: TVPEILVHNIVIFMRTSVKISYIG
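Also: lentivirally expressed fusions sorted by FACS into six bins by GFP to DsRed ratio, PSI derived from sequencing read proportions per bin multiplied by bin number.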

Variants of B1 are the subject of the data set. Put plainly: protein stability index of a GFP-peptide fusion (GPS, HEK-293T) (PSI 1-6); higher = more stable. The note with it: c terminus: a fixed tail appended.
Regarding TVPEILVHNIVIFRRTSVKISYIG [M14R], the protein stability index was determined as 2.21.
Regarding TVPEILVHNIVIFARTSVKISYIG [M14A], the protein stability index was determined as 3.73.
With TVPEILVHNIVIFNRTSVKISYIG [M14N], the protein stability index was determined as 3.25.
The figure for TVPEILVHNIVIFERTSVKISYIG [M14E] is 3.79; for TVPEILVHNIVIFPRTSVKISYIG [M14P] it is 3.45.
The figure for TVPEILVHNIVIFKRTSVKISYIG [M14K] is 3.19; for TVPEILVHNIVIFIRTSVKISYIG [M14I] it is 2.85.
The figure for TVPEILVHNIVIFSRTSVKISYIG [M14S] is 4.03; for TVPEILVHNIVIFQRTSVKISYIG [M14Q] it is 3.58.
With TVPEILVHNIVIFGRTSVKISYIG [M14G], the protein stability index is 3.13.
Consider TVPEILVHNIVIFVRTSVKISYIG [M14V], for which the protein stability index was 2.68.
The figure for TVPEILVHNIVIFWRTSVKISYIG [M14W] is 2.87; for TVPEILVHNIVIFYRTSVKISYIG [M14Y] it is 2.6.
With TVPEILVHNIVIFHRTSVKISYIG [M14H], the protein stability index came out at 2.91.
The figure for TVPEILVHNIVIFCRTSVKISYIG [M14C] is 2.99; for TVPEILVHNIVIFLRTSVKISYIG [M14L] it is 3.05.
With TVPEILVHNIVIFFRTSVKISYIG [M14F], the protein stability index came to 2.97.
In the case of TVPEILVHNIVIFDRTSVKISYIG [M14D], the protein stability index was 3.11.
The figure for TVPEILVHNIVIFMRTSVNISYIG [K19N] is 3.38; for TVPEILVHNIVIFMRTSVSISYIG [K19S] it is 3.4; for TVPEILVHNIVIFMRTSVPISYIG [K19P] it is 2.88.
To TVPEILVHNIVIFMRTSVHISYIG [K19H] belongs 2.62; to TVPEILVHNIVIFMRTSVDISYIG [K19D], 3.61; to TVPEILVHNIVIFMRTSVLISYIG [K19L], 3.2.
Regarding TVPEILVHNIVIFMRTSVGISYIG [K19G], the protein stability index turned out to be 2.77.
Regarding TVPEILVHNIVIFMRTSVCISYIG [K19C], the protein stability index was found to be 4.43.
Take TVPEILVHNIVIFMRTSVAISYIG [K19A]: the protein stability index is 3.17.
For TVPEILVHNIVIFMRTSVMISYIG [K19M], the protein stability index is 1.77.
To TVPEILVHNIVIFMRTSVFISYIG [K19F] belongs 3.24; to TVPEILVHNIVIFMRTSVEISYIG [K19E], 4.38; to TVPEILVHNIVIFMRTSVYISYIG [K19Y], 3.12.
The figure for TVPEILVHNIVIFMRTSVIISYIG [K19I] is 3.18.
To TVPEILVHNIVIFMRTSVQISYIG [K19Q] belongs 3.02.
Take TVPEILVHNIVIFMRTSKKISYIG [V18K]: the protein stability index stood at 2.77.
On to TVPEILVHNIVIFMRTSQKISYIG [V18Q], for which the protein stability index amounted to 3.31.
The figure for TVPEILVHNIVIFMRTSEKISYIG [V18E] is 2.77; for TVPEILVHNIVIFMRTSFKISYIG [V18F] it is 2.33; for TVPEILVHNIVIFMRTSWKISYIG [V18W] it is 2.45.
Regarding TVPEILVHNIVIFMRTSHKISYIG [V18H], the protein stability index was 2.13.
Consider TVPEILVHNIVIFMRTSAKISYIG [V18A], for which the protein stability index was found to be 4.48.
To TVPEILVHNIVIFMRTSLKISYIG [V18L] belongs 4.24; to TVPEILVHNIVIFMRTSTKISYIG [V18T], 3.66; to TVPEILVHNIVIFMRTSDKISYIG [V18D], 2.15.
The figure for TVPEILVHNIVIFMRTSGKISYIG [V18G] is 2.88; for TVPEILVHNIVIFMRTSSKISYIG [V18S] it is 3.02.
For the variant TVPEILVHNIVIFMRTSYKISYIG [V18Y], the protein stability index stood at 4.01.
The figure for TVPEILVHNIVIFMRTSMKISYIG [V18M] is 3.05.
With TVPEILVHNIVIFMRTSPKISYIG [V18P], the protein stability index worked out at 2.92.
The figure for TVPEILVHNIVIFMRTSNKISYIG [V18N] is 3.44; for TVPEILVHNIVIFMRTSVKISKIG [Y22K] it is 2.86.
The figure for TVPEILVHNIVIFMRTSVKISVIG [Y22V] is 4.14; for TVPEILVHNIVIFMRTSVKISTIG [Y22T] it is 2.84; for TVPEILVHNIVIFMRTSVKISMIG [Y22M] it is 3.99.
To TVPEILVHNIVIFMRTSVKISNIG [Y22N] belongs 3.33; to TVPEILVHNIVIFMRTSVKISCIG [Y22C], 2.5; to TVPEILVHNIVIFMRTSVKISFIG [Y22F], 2.35.
TVPEILVHNIVIFMRTSVKISGIG [Y22G]: the protein stability index came to 2.47.
Regarding TVPEILVHNIVIFMRTSVKISSIG [Y22S], the protein stability index came out at 2.31.
To TVPEILVHNIVIFMRTSVKISAIG [Y22A] belongs 3.58; to TVPEILVHNIVIFMRTSVKISPIG [Y22P], 3; to TVPEILVHNIVIFMRTSVKISIIG [Y22I], 4.35.
Take TVPEILVHNIVIFMRTSVKISHIG [Y22H]: the protein stability index was 2.67.
For TVPEILVHNIVIFMRTSVKISLIG [Y22L], the protein stability index came out at 2.73.
To TVPEILVHNIVIFMRTSVKISRIG [Y22R] belongs 3.04.
The figure for TVPEILVHNIVIFMRTSVKISDIG [Y22D] is 2.46.
With TVPEILVHNIVIFMRTSVKISWIG [Y22W], the protein stability index was determined as 2.65.
To TVPEILVHNIVIFMRTSVKISQIG [Y22Q] belongs 3.85; to TVPEILVHNIVIQMRTSVKISYIG [F13Q], 2.96; to TVPEILVHNIVIMMRTSVKISYIG [F13M], 2.42.
The figure for TVPEILVHNIVIYMRTSVKISYIG [F13Y] is 3.23.
To TVPEILVHNIVIEMRTSVKISYIG [F13E] belongs 2.27; to TVPEILVHNIVINMRTSVKISYIG [F13N], 3.17.
On to TVPEILVHNIVIKMRTSVKISYIG [F13K], for which the protein stability index worked out at 3.49.
To TVPEILVHNIVITMRTSVKISYIG [F13T] belongs 2.99; to TVPEILVHNIVILMRTSVKISYIG [F13L], 4.27; to TVPEILVHNIVIHMRTSVKISYIG [F13H], 2.11.
To TVPEILVHNIVIRMRTSVKISYIG [F13R] belongs 2.3; to TVPEILVHNIVISMRTSVKISYIG [F13S], 2.83; to TVPEILVHNIVIPMRTSVKISYIG [F13P], 3.22.
The figure for TVPEILVHNIVIGMRTSVKISYIG [F13G] is 3.8; for TVPEILVHNIVIDMRTSVKISYIG [F13D] it is 2.85.
Regarding TVPEILVHNIVICMRTSVKISYIG [F13C], the protein stability index amounted to 3.25.
To TVPEILVHNIVIVMRTSVKISYIG [F13V] belongs 3.33; to TVPEILVHNIVIFMRTSVKIQYIG [S21Q], 2.04.
The figure for TVPEILVHNIVIFMRTSVKITYIG [S21T] is 3.42; for TVPEILVHNIVIFMRTSVKIKYIG [S21K] it is 2.53.
The figure for TVPEILVHNIVIFMRTSVKIFYIG [S21F] is 3.13; for TVPEILVHNIVIFMRTSVKIGYIG [S21G] it is 1.99; for TVPEILVHNIVIFMRTSVKIMYIG [S21M] it is 3.51.
For the variant TVPEILVHNIVIFMRTSVKIWYIG [S21W], the protein stability index stood at 1.95.
The figure for TVPEILVHNIVIFMRTSVKIEYIG [S21E] is 3.24.
For the variant TVPEILVHNIVIFMRTSVKIDYIG [S21D], the protein stability index came to 2.53.
To TVPEILVHNIVIFMRTSVKIIYIG [S21I] belongs 3.51; to TVPEILVHNIVIFMRTSVKIHYIG [S21H], 2.81.
